{"source": "paper PMC6653659", "origin": "cited, not measured here", "target": "glucocorticoid receptor LBD (Homo sapiens) (UniProt P04150)", "note": "pKd: −log10 of the molar value.", "data": [{"substance": "glucocorticoid receptor LBD (from UniProt P04150)", "values": [{"measurement": "pKd", "result": 5.82}]}]}
